# Source: US20200239573A1 (CRESCENDO BIOLOGICS, published 2020)
# Numbering of substitutions follows the chain as printed. Values joined by “and” are separate entries in the source; they are usually repeats but may differ in a detail not shown here. Equal entries are not always repeated.
# B1: Humabody® 1.84 (VHH)
# VHH: EVQLVESGGGLVKPGGSLRLSCAASGFTFSDESMTWMRQAPGKGLEWVSYISSGGGVKFYTDSVKGRFTISRDNAKNSLYLQMNSLRAEDTAVYYCAREAPLRLGESPHDAFDISGQGTMVTVSS
# notes: human VH single domain antibody
# B2: Humabody® 1.104 (VHH)
# VHH: B1 VHH with M34F
# notes: as for B1
# B3: Humabody® 1.105 (VHH)
# VHH: B1 VHH with M34L
# notes: as for B1
# B4: Humabody® 1.89 (VHH)
# VHH: B1 VHH with E32Y, T61A
# notes: as for B1
# B5: 1.77-4GS-non-blocking VH (3) (bispecific antibody)
# chain: EVQLVESGGGLVKPGGSLRLSCAASGFTFSDSSMTWMRQAPGKGLEWVSYISSGGGVKFYTDSVKGRFTISRDNAKNSLYLQMNSLRAEDTAVYYCAREAPLRLGESPHDAFDISGQGTMVTVSSGGGGSGGGGSGGGGSGGGGSEVQLVESGGGLVQPGRSLRLSCAASGFTFDDYAMHWVRQAPGKDLEWVSGISWNGGSMGYAASVKGRFTISRDNAKNSLYLQMNSLRAEDTALYYCVREKGPGLTGSTADYYGLDVWGQGTMVTVSS
# B6: Humabody® 1.48 (VHH)
# VHH: B1 VHH with E1Q, E32S, T61A, E89D, S115W
# notes: as for B1
# B7: Humabody® 1.56 (VHH)
# VHH: B1 VHH with E1Q, E32N, G56A, T61A, E89D, S115L
# notes: as for B1
# B8: Humabody® 1.49 (VHH)
# VHH: B1 VHH with E1Q, E32S, T35S, S53T, T61A, E89D, S115W
# notes: as for B1
# B9: Humabody® 1.44 (VHH)
# VHH: B1 VHH with E1Q, E32N, G56A, T61A, E89D, S115W
# notes: as for B1
# B10: Humabody® 1.52 (VHH)
# VHH: B1 VHH with E1Q, E32N, F59Y, T61A, E89D, S115W
# notes: as for B1
# B11: Humabody® 1.43 (VHH)
# VHH: B1 VHH with E1Q, E32S, K58I, T61A, E89D, S115W
# notes: as for B1
# B12: Humabody® 1.55 (VHH)
# VHH: B1 VHH with E1Q, E32N, T61A, E89D
# notes: as for B1
# B13: Humabody® 1.54 (VHH)
# VHH: B1 VHH with E1Q, E32D, K58I, T61A, E89D, S115W
# notes: as for B1
# B14: Humabody® 1.41 (VHH)
# VHH: B1 VHH with E1Q, E32N, K58I, T61A, E89D, S115W
# notes: as for B1
# B15: Humabody® 1.50 (VHH)
# VHH: B1 VHH with E1Q, E32N, G56T, V57I, T61A, E89D, S115W
# notes: as for B1
# B16: Humabody® 1.42 (VHH)
# VHH: B1 VHH with E1Q, E32N, T61A, E89D, S115W
# notes: as for B1
# B17: Humabody® 1.51 (VHH)
# VHH: B1 VHH with E1Q, E32S, G56A, E89D, S115W
# notes: as for B1
# B18: Humabody® 1.3 (VHH)
# VHH: B1 VHH with E1Q, E32Y, S33T, S53T, G56S, V57I, F59Y, E89D, S115W
# notes: as for B1
# B19: Humabody® 1.6 (VHH)
# VHH: B1 VHH with V5L, E32Y, S33T, S53T, G56T, V57I, F59Y, N84S, E89D, S115W
# notes: as for B1
# B20: Humabody® 1.8 (VHH)
# VHH: B1 VHH with E32Y, S33T, S53T, G56S, V57I, F59Y, E89G, S115W
# notes: as for B1
# B21: Humabody® 1.10 (VHH)
# VHH: QVQLVESGGGLVKPGGSLRLSCAASGFTFSDYTMSWMRQAPGKGLEWISYISLGGNTKYYTDSVKGRFTISRDNAKNSLYLQMNSLRADDTAVYYCAREAPLRLGESPHDAFDIWGQGTMVTVSS
# notes: as for B1
# B22: Humabody® 1.7 (VHH)
# VHH: B21 VHH with Q1E, S35T, I48V, L53T, N56T, T57I
# notes: as for B1
# B23: Humabody® 1.71 (VHH)
# VHH: B1 VHH with E1Q, S30G, D31G, E32S, E89D
# B24: Humabody® 1.67 (VHH)
# VHH: B1 VHH with E1Q, D31G, E32S, K58I, T61A, E89D
# B25: Humabody® 1.70 (VHH)
# VHH: B1 VHH with E1Q, S30G, E32S, G56A, E89D
# B26: Humabody® 1.69 (VHH)
# VHH: B1 VHH with E1Q, E32N, T35S, K58I, T61A, E89D
# B27: Humabody® 1.72 (VHH)
# VHH: B1 VHH with E1Q, E32S, T35S, K58I, T61A, E89D
# B28: Humabody® 1.46 (VHH)
# VHH: B1 VHH with E1Q, E32S, T35S, K58I, T61A, E89D, S115W
# notes: as for B1
# B29: Humabody® 1.58 (VHH)
# VHH: B1 VHH with E1Q, E32N, S33T, S53T, T61A, E89D, S115W
# notes: as for B1
# B30: Humabody® 1.45 (VHH)
# VHH: B1 VHH with E1Q, E32Y, T35S, K58I, T61A, E89D, S115W
# notes: as for B1
# B31: Humabody® 1.59 (VHH)
# VHH: B1 VHH with E1Q, E32N, T35S, G56S, T61A, E89D, S115W
# notes: as for B1
# B32: Humabody® 1.47 (VHH)
# VHH: B1 VHH with E1Q, E32N, T35S, K58I, T61A, E89D, S115W
# notes: as for B1
# B33: Humabody® 1.53 (VHH)
# VHH: B1 VHH with E1Q, E32N, G56S, T61A, E89D, S115W
# notes: as for B1
# B34: Humabody® 1.101 (VHH)
# VHH: B1 VHH with E32F, T61A
# notes: as for B1
# B35: Humabody® 1.94 (VHH)
# VHH: B1 VHH with E32W, T61A
# notes: as for B1
# Biological target: T1, Strep tagged recombinant human PD-1 (human, UniProt Q15116 25-170, limits assumed)
# T1 construct: the whole entry is named; also called strep tagged human PD-1; not shown: Strep tag
# T1 sequence (Q15116 25-170 limits assumed): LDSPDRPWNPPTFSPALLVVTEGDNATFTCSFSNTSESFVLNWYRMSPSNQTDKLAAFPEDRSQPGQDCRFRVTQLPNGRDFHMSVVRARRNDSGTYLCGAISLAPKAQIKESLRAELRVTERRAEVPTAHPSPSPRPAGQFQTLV
# Experiment: SPR Biacore T200, strep-tagged PD-1 amine-coupled, single cycle kinetics
# Description: Single cycle kinetics assays were used to study the interaction between human PD-1 with Humabody® on a Biacore T200 instrument (GE Healthcare). Strep tagged recombinant human PD-1 was amine coupled to one flow cell of a CM-5 chip to create a low density surface (14 RU) using standard Biacore reagents. For the reference flow cell, a blank immobilisation was carried out. A five-point, three-fold dilution series of each Humabody® was made with a top concentration of 25 nM. The binding kinetics were followed by flowing the Humabody® over the chip surface in HBS EP+ buffer at a flow rate of 30 μl/min. The contact time for each of the association steps was 180 seconds and the dissociation step was 3300 seconds. The data was fitted to a 1:1 binding model after double reference subtraction using the Biacore T200 Evaluation software.
Kd [nM],koff [s⁻¹],kon [M⁻¹ s⁻¹],Binder
0.091,7.6e-05,830000,B1
0.08,6.3e-05,780000,B2
0.091,8.7e-05,950000,B3
0.0342,5.6e-05,1.6e+06,B4
0.063,3.5e-05,550000,B5

# Biological target: T2, recombinant human PD-1 Fc chimera (human, UniProt Q15116 25-167)
# T2 construct: Bought protein; also called human PD-1-huFc; huPD-1-Fc; not shown: human Fc
# T2 sequence (Q15116 25-167 limits assumed, change not shown): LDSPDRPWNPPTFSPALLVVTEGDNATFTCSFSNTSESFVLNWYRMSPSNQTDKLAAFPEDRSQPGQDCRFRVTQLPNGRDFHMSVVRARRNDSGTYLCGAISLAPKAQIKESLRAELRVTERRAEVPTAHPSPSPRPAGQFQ
# Experiment: SPR Biacore T200, PD-1-huFc amine-coupled, single cycle kinetics
# Description: Binding kinetics of certain VH single domain antibodies binding to human PD-1-huFc were measured by surface plasmon resonance (SPR) technology using Biacore T200 instrument (GE Healthcare). Recombinant human PD-1-huFc was immobilized by standard amine coupling to CM5 sensorschip (GE Healthcare) using in range of 0.1-0.01 mg/ml solution of antigen in 10 mM sodium acetate at pH 5.5. For the reference flow cell, a blank immobilisation was carried out. Single cycle kinetics assays were used to study the interaction, a five point, three-fold dilution series of each Humabody® was made with a top concentration of 30 nM. The binding kinetics were followed by flowing the Humabody® over the chip surface in HBS EP+ buffer at a flow rate of 30 μl/min. The contact time for each of the association steps was 180 seconds and the dissociation step was varied between 1200-3600 seconds. The data was fitted to a 1:1 binding model after double reference subtraction using the Biacore T200 Evaluation software.
Kd,koff,kon,Binder
0.106 nM,5.24e-05 s⁻¹,496000 M⁻¹ s⁻¹,B6
0.0355 nM,1.53e-05 s⁻¹,432000 M⁻¹ s⁻¹,B7
0.11 nM,2.89e-05 s⁻¹,263000 M⁻¹ s⁻¹,B8
0.2 nM and 0.17 nM,4.18e-05 s⁻¹ and 4e-05 s⁻¹,209000 M⁻¹ s⁻¹ and 235000 M⁻¹ s⁻¹,B9
0.299 nM and 0.256 nM,6.14e-05 s⁻¹ and 7.61e-05 s⁻¹,205000 M⁻¹ s⁻¹ and 297000 M⁻¹ s⁻¹,B10
0.0681 nM,2.79e-05 s⁻¹,410000 M⁻¹ s⁻¹,B11
0.0364 nM,1.95e-05 s⁻¹,535000 M⁻¹ s⁻¹,B12
0.0856 nM,4.53e-05 s⁻¹,530000 M⁻¹ s⁻¹,B13
0.0552 nM,2.96e-05 s⁻¹,–,B14
0.0581 nM,2.34e-05 s⁻¹,402000 M⁻¹ s⁻¹,B15
0.0505 nM,2.69e-05 s⁻¹,532000 M⁻¹ s⁻¹,B16
0.317 nM,5.98e-05 s⁻¹,189000 M⁻¹ s⁻¹,B17

# Biological target: T2, recombinant human PD-1 Fc chimera
# Experiment: HTRF inhibition; strep-tagged PD-L1 vs PD-1-Fc
# Description: All samples and reagents were prepared in HTRF assay buffer containing PBS, 0.1% (w/v) BSA and 0.4M Potassium Fluoride. […] Total binding controls containing periplasmic extract sample buffer and non-specific binding controls containing excess untagged competitor were set up on each plate for data normalisation. Time-resolved fluorescent emission at 620 nm and 665 nm was measured following excitation at 337 nm on the BMG PHERAstar plate reader. Data was expressed as a % of the total binding control (% control) after subtraction of the background signal determined from the non-specific binding control wells.
row,IC50 [nM],Binder
1,2.3,B18
2,13.1,B19
3,28.8,B20
4,54.1,B21
5,4.4,B22

# Biological target: T3, human PD-1 expressed on cells (CHO human PD-1 cells) (human, UniProt Q15116 21-288)
# T3 sequence (Q15116 21-288): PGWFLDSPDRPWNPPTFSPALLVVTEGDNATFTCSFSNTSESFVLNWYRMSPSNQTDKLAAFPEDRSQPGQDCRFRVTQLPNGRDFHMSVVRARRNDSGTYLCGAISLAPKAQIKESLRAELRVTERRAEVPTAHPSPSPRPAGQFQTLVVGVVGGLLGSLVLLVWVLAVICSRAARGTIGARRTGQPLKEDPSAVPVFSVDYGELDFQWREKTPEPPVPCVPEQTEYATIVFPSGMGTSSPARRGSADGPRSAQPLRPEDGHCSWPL
# Experiment: cell-based or functional assay
row,Reporter Assay EC50 [nM],Binder
1,7.43,B23
2,12,B24
3,29,B25
4,35,B26
5,26.1,B27
6,45,B28
7,18,B6
8,7.1,B29
9,41,B9
10,12,B11
11,74,B30
12,24,B31
13,19,B4
14,8.6,B16
15,27,B32
16,23,B17
17,14,B33

# Biological target: T3, human PD-1 expressed on cells (CHO …)
# Experiment: FMAT epitope competition on CHO human PD-1 cells; competitor 1 nM 1.1-Strep
# Description: For the epitope competition assay reagents were prepared in FMAT assay buffer. […] Plates were incubated for a minimum of 1.5 hours at room temperature then fluorescence measured in the FL2 (502 nm-537 nm) and FL5 (677-800 nm) channels on the Mirrorball plate reader (TTP) following excitation at 488 nm and 640 nm. Data was expressed as a % of the total binding control (i.e. % control) after subtraction of the background signal determined from the non-specific binding control wells.
row,IC50 [nM],Binder
1,1.8,B28
2,4.6,B29
3,3,B34
4,1.9,B9
5,4.2,B35
6,1.3,B11
7,2.5,B30
8,7.8,B31
9,2.4,B4
10,3.5,B16
11,4.4,B32
12,4.7,B17
13,5.4,B33
